Target: pyruvate kinase isoform M2 (PKM2) (mouse (endogenous in Th17 cells)) (UniProt P52480)

Sequence of pyruvate kinase isoform M2 (PKM2), P52480 1-531 (enzyme; other documents disagree on this pair) (P52480 whole entry, canonical isoform): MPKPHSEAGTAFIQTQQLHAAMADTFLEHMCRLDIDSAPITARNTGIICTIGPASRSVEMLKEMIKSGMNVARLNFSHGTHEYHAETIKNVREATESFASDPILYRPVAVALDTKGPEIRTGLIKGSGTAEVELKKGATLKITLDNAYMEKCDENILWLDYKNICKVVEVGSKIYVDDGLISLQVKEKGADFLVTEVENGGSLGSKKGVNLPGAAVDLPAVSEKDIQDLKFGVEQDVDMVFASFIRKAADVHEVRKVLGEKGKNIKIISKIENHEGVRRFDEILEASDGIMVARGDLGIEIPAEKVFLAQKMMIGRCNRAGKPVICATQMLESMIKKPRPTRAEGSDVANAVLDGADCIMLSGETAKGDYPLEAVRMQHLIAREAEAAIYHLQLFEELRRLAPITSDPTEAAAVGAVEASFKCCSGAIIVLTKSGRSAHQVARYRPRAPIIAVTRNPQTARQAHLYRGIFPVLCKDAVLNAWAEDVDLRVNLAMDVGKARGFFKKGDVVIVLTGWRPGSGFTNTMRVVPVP

## pyruvate kinase isoform M2 (PKM2), P52480 1-531 (enzyme; other documents disagree on this pair)
  stoichiometry N: 4

— paper PMC10175746
